Experimental data published in paper PMC4376263 (International Journal of Nanomedicine, 2015).
Several values for one entry are separate records, joined by “and”; a condition that tells them apart may be missing. Equal entries are not always repeated. Where two headings read alike, the source gives them in different places.

What was measured:
[1] = system: CT26 tumor xenograft; assay type: in vivo, BALB/c mice; conditions: for Body weight Final / Body weight Initial / IRT (inhibition ratio of the tumor) / Tumor weight Mean ± SD: n=8; for Histological section examination of tumor (H&E): day 14
[2] = system: murine colon adenocarcinoma cell line CT26; assay: In vitro cytotoxicity; assay type: cell-based; conditions: for fold more potent than CPT-11: ratio of IC50 values
[3] = Particle size and zeta potential of micelles; assay type: physicochemical; conditions: 25°C, n=3
[4] = Pharmacokinetic study after intravenous administration to SD rats; conditions: n=6; for Cmax of free SN38: free SN38 in plasma, intravenous 10 mg/kg (equivalent to SN38); for AUC0–24 of prodrug / Cmax of prodrug: prodrug form in plasma (equivalent to SN38); for AUC0–24 of prodrug / Cmax of prodrug / CL of prodrug / MRT0–24 of prodrug / T1/2 of prodrug: intravenous 10 mg/kg; for CL of prodrug / MRT0–24 of prodrug / T1/2 of prodrug: prodrug form in plasma
[5] = Critical micelle concentration; assay type: physicochemical; conditions: aqueous medium, coumarin-6 probe
[6] = Drug-loading measurement; assay type: physicochemical; conditions: weight of SN38 / weight of prodrug, HPLC with UV detector, triplicate
[7] = In vitro drug release by dialysis; assay type: physicochemical; conditions: by 48 hours, 37°C, pH 6.5 PBS, pH 7.4 PBS, 25% liver homogenate, 50% plasma; P<0.05
[8] = 2.5 mg/kg (equivalent to SN38) i.v. every 2 days for 2 weeks
[9] = 1.25 mg/kg (equivalent to SN38) i.v. every 2 days for 2 weeks
[10] = CT26 cells, 48 hours incubation, MTT, equivalent to SN38, mean ± SD, n=3

CCc1c2c(nc3ccc(OC(=O)N4CCC(N5CCCCC5)CC4)cc13)-c1cc3c(c(=O)n1C2)COC(=O)[C@]3(O)CC [CPT-11, irinotecan, reference compound]
Body weight Final [1, 8]: 23.6 ± 1.67 g
Body weight Initial [1, 8]: 19.8 ± 1.73 g
IRT (inhibition ratio of the tumor) [1, 8]: 23.5%
Tumor weight Mean ± SD [1, 8]: 2.51 ± 0.36 g
Histological section examination of tumor (H&E) ([1]; 2.5 mg/kg): Partial tumor tissue necrosis
IC50 ([2]; Mus musculus, CT26, 48 h): 46700 nM

CCc1c2c(nc3ccc(O)cc13)-c1cc3c(c(=O)n1C2)COC(=O)[C@]3(O)CC [SN38, 7-Ethyl-10-hydroxycamptothecin, reference compound]
IC50 ([2]; Mus musculus, CT26, 48 h): 20.4 ± 1.8 nM

chitosan-(C10-OH)SN38 [CS-(10s)SN38]
mean particle size [3]: 128.0±1.8 nm
mean zeta potential [3]: 21.1±0.5 mV
Cmax of free SN38 [4]: 3,057.78±637.61 μg/L
AUC0–24 of prodrug [4]: 89.84±8.01 ×10^3 μg⋅h/L
Cmax of prodrug [4]: 46.89±6.56 ×10^3 μg/L
CL of prodrug [4]: 0.11 ± 0.01 L/h/kg
MRT0–24 of prodrug [4]: 4.90 ± 0.66 h
T1/2 of prodrug [4]: 5.40 ± 1.29 h
Body weight Final [1, 9]: 24.6 ± 1.24 g
Body weight Initial [1, 9]: 20.0 ± 1.73 g
IRT (inhibition ratio of the tumor) [1, 9]: 27.7%
Tumor weight Mean ± SD [1, 9]: 2.37 ± 0.19 g
Histological section examination of tumor (H&E) ([1]; 1.25 mg/kg): Partial tumor tissue necrosis
Body weight Final [1, 8]: 22.7 ± 1.96 g
Body weight Initial [1, 8]: 20.4 ± 2.11 g
IRT (inhibition ratio of the tumor) [1, 8]: 47.8 ^a, ^b %
Tumor weight Mean ± SD [1, 8]: 1.71 ± 0.21 g
Histological section examination of tumor (H&E) ([1]; 2.5 mg/kg): extensive tissue necrosis
CMC (critical micelle concentration) [5]: 15 µg/mL
IC50 [2, 10]: 3500 nM
fold more potent than CPT-11 ([2]; CT26 cells): 13.3 fold
drug loading [6]: 16.5%±0.7%

chitosan-(C20-OH)SN38 [CS-(20s)SN38]
mean particle size [3]: 122.4±1.1 nm
mean zeta potential [3]: 22.3±0.4 mV
Cmax of free SN38 [4]: 2,489.43±153.63 μg/L
AUC0–24 of prodrug [4]: 133.07±11.10 ×10^3 μg⋅h/L
Cmax of prodrug [4]: 48.43±4.27 ×10^3 μg/L
CL of prodrug [4]: 0.07 ± 0.01 L/h/kg
MRT0–24 of prodrug [4]: 4.94 ± 1.58 h
T1/2 of prodrug [4]: 7.05 ± 2.04 h
Body weight Final [1, 9]: 24.1 ± 1.31 g
Body weight Initial [1, 9]: 20.6 ± 1.31 g
IRT (inhibition ratio of the tumor) [1, 9]: 31%
Tumor weight Mean ± SD [1, 9]: 2.24 ± 0.27 g
Histological section examination of tumor (H&E) ([1]; 1.25 mg/kg): Partial tumor tissue necrosis
Body weight Final [1, 8]: 21.5 ± 2.52 g
Body weight Initial [1, 8]: 19.6 ± 1.57 g
IRT (inhibition ratio of the tumor) [1, 8]: 64.7% and 64.7 ^a, ^c, ^d %
Tumor weight Mean ± SD [1, 8]: 1.15 ± 0.09 g
Histological section examination of tumor (H&E) ([1]; 2.5 mg/kg): extensive tissue necrosis
CMC (critical micelle concentration) [5]: 12 µg/mL
IC50 [2, 10]: 1800 nM
fold more potent than CPT-11 ([2]; CT26 cells): 25.9 fold
drug loading [6]: 17.4%±0.8%
drug release compared with CS-(10s)SN38 [7]: slower drug release
